Here are results for two molecules from article PMC10115415, “RNA binding induces an allosteric switch in Cyp33 to repress MLL1-mediated transcription” (Science Advances, 2023).

B1: MLL1 third plant homeodomain (PHD3) (domain or fragment, UniProt Q03164 1564-1627, looked up)
chain: AKGNFCPLCDKCYDDDDYESKMMQCGKCDRWVHSKCENLSDEMYEILSNLPESVAYTCVNCTER
notes: mixed-lineage leukemia 1 (MLL1), PHD3 domain, residues 1564 to 1627 (chain B 1564–1627); coordinates two zinc ions; The tag was removed with TEV protease on the chitin column; also called MLL1 PHD3; MLL1-PHD3; source: E. coli BL21-(DE3), codon-optimized construct, IMPACT system, purified (chitin beads, TEV cleavage, Superdex 75)

Conditions in all cases: both partners purified
Experiment [1] has as its target T1, Cyp33 full-length (FL) (human, UniProt Q9UNP9 1-301).
T1 construct: cyclophilin 33 (Cyp33), 33 kDa, N-terminal RRM and C-terminal cyclophilin domain; details may stand in the Supplementary Materials and Methods; also called Cyp33 FL; cyclophilin 33
The experiment is described as follows: NMR titration; Cyp33 FL:UAAUGU RNA complex mixed with MLL1 PHD3:H3K4me3 complex at 1:1:1:1 stoichiometry (or in large excess of Cyp33:RNA); signals of RNA, of the K4me3 methyl groups and of PHD3 residues followed.

Experiment [2] has as its target Cyp33 RRM/MLL1 PHD3 complex (human | , UniProt Q9UNP9 1-114; Q03164 1564-1627). The experiment is described as follows: ITC; conditions not given (table S1, fig. S2). (Isothermal titration calorimetry measures the heat released or taken up as one component is titrated into another.)
For experiment [3], the target named is B1. The experiment is described as follows: ITC; conditions not given (table S1, fig. S2).

Sequence of Cyp33 RRM/MLL1 PHD3 complex (Q9UNP9 other isoform, or with tags, fused parts or gaps): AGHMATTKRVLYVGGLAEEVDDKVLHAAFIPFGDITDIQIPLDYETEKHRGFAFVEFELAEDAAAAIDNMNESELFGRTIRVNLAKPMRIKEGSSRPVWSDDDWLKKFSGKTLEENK
T1 sequence (Q9UNP9 whole entry, the tested form may be a part): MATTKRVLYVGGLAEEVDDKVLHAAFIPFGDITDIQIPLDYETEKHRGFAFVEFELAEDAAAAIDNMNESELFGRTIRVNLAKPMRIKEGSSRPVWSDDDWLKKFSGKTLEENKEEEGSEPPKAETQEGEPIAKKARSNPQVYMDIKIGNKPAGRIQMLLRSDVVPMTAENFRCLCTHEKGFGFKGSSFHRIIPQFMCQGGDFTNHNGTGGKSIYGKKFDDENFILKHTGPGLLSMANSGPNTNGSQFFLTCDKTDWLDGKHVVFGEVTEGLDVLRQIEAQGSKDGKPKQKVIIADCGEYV

For the molecule B1, the binding result in experiment [1] is “binds”.

B2: Histone H3 lysine N6-trimethylated peptide (H3K4me3) (peptide, UniProt P68431 2-14, looked up)
peptide: ARTKQTARKSTGG
modifications: N6-trimethyl-lysine at 4
notes: histone H3 N-terminal tail, residues 1–13 (chain C of the ternary complex), Lys4 trimethylated; The text says that it has four positively charged residues and no negatively charged one; The limits 1–13 are those of chain C of the structure; also called H3K4me3 peptide; histone H3 tail
One may read the Kd as the constant that tells how readily two partners part at equilibrium. Higher therefore signals weaker binding. Turning to B2, the Kd in experiment [2] was found to be 70 µM; in experiment [3] it was 51 µM.
